According to patent publication US20050085420A1, “Method of modulating apoptosis and compositions thereof” (priority 2003, published 2005):
Changes are numbered by the printed parent chain. Numbers in names are those of the source.

Key:
MEFs = assay: G418 selection of mouse embryonic fibroblasts; format: cell-based; conditions: 0.3 mg/ml G418, 3 days
Method: vdac1 -/- and vdac2 -/- embryonic stem (ES) cells were described previously S. Wu, M. J. Sampson, W. K. Decker, W. J. Craigen, Biochim Biophys Acta 1452, 68-78. (1999). 129/SvEv derived ES cell clones with homozygous deletion of vdac2 alleles were microinjected into blastocysts from C57BL/6 female mice. Mouse embryonic fibroblasts derived from E13.5 day chimeric embryos were treated with 0.3 mg/ml G418 (GIBCO-BRL) at second passage for 5 days to select for vdac2 -/- cells. Normally, 100% of MEFs died at 3 days in the presence of 0.3 mg/ml G418. Deficiency of VDAC2 in cells following G418 selection was confirmed by an immunoblot developed with an anti-VDAC2 Ab.

[1] = biological target: T1, VDAC2 (endogenous, or untagged murine vdac2 re-expressed by retrovirus) (murine, UniProt Q60930 1-295); assay: restatement of the co-immunoprecipitation result
T1 construct: In mitochondria or whole cells; also called Voltage-Dependent Anion Channel 2; protein X
T1 sequence (looked up): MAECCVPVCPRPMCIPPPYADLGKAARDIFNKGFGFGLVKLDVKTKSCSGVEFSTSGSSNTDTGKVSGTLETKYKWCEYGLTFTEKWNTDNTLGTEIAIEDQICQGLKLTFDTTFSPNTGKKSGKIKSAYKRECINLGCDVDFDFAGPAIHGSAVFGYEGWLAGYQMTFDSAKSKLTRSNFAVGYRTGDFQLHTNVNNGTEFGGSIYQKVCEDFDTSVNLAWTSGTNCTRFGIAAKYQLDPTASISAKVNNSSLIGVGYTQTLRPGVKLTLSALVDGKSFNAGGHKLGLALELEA

VDAC1 (endogenous) = VDAC1 (endogenous) (mouse, UniProt Q60932-2 2-283, limits assumed); assay: DSS crosslinking of vdac2-deficient ES cells, anti-BAK immunoblot
Chain of VDAC1 (endogenous) (Q60932 15-296 limits assumed): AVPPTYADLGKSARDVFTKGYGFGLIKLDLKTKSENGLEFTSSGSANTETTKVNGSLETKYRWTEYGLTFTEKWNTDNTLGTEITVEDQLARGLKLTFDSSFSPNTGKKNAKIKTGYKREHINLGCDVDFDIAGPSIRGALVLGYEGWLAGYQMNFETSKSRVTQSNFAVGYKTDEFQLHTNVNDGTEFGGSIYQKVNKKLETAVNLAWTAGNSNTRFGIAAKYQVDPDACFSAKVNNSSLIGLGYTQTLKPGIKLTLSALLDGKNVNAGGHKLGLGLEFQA

[2] = biological target: the molecule itself; assay: Superdex 200 gel filtration of mitochondrial lysates in 2% CHAPS, anti-BAK immunoblot
Method: The chromatographic step of Superdex 200 (HR 10/30, Amersham-Pharmacia) was performed on an automatic fast protein liquid chromatography (FPLC) station (Amersham-Pharmacia) at 4° C. The column was equilibrated with buffer containing 2% CHAPS, 300 mM NaCl, 0.2 mM DTT, and 25 mM Hepes, pH 7.5 and calibrated with thyroglobulin (669 kD, Amersham-Pharmacia), ferritin (440 kD, Amersham-Pharmacia), catalase (232 kD, Amersham-Pharmacia), aldolase (158 kD, Amersham-Pharmacia), bovine serum albumin (66 kD, Calbiochem), and cytochrome c (14 kD, Sigma). 200 μl of mitochondrial lysates (1 mg/ml protein in the same buffer as above) was loaded onto the column, eluted at a flow rate of 0.3 ml/minute. Fractions of 0.6 ml were collected, precipitated by trichloroacetic acid, and analyzed by an immunoblot (fractions 16-31) developed with an anti-BAK Ab.

[3] = biological target: T1, VDAC2 (endogenous, or untagged murine …); assay: DSS crosslinking of reconstituted Bax, Bak doubly-deficient MEFs, anti-BAK immunoblot
BAK = biological target: T2, BAK (Mus musculus, UniProt O08734); assay: Co-precipitation of endogenous BAK with HA-tagged VDAC2; format: binding; conditions: wt MEF mitochondria, CHAPS, anti-HA immunoprecipitation
T2 construct: endogenous in cells; host or cells: wt MEFs transduced with HA-VDAC2 retrovirus; mitochondria solubilized in 1% CHAPS or 0.2% NP-40
T2 sequence (O08734 2-209 limits assumed): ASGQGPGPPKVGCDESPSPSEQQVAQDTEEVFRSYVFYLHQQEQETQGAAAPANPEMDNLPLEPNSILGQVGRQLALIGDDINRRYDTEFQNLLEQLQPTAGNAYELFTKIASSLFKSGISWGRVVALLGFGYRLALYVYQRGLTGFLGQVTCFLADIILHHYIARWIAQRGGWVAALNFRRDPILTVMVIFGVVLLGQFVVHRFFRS
T2 sequence (Q60930 1-295 partner): T1 sequence (looked up)
Method: (§1) FIG. 2E is a photograph depicting mitochondria isolated from wt MEFs (upper panel) or Bax, Bak doubly deficient MEFs (lower panel), which were transduced with retrovirus expressing N-terminal HA-tagged VDAC2, BAK or BAX and were solubilized in either 1% CHAPS or 0.2% NP-40 buffer, followed by immunoprecipitation with an anti-HA antibody. The immunoprecipitates were analyzed by an immunoblot developed with anti-HA-Biotin, anti-BAK, anti-BAX, or anti-VDAC2 Abs as indicated.
(§2) An HA-tagged BAK, but not HA-tagged BAX co-precipitated endogenous VDAC2 (FIG. 2E).

BAX = biological target: T3, BAX (Mus musculus, UniProt Q07813); assay: Co-precipitation of endogenous BAX with HA-tagged VDAC2; format: binding; conditions: wt MEF mitochondria, CHAPS, anti-HA immunoprecipitation
T3 construct: endogenous in cells; host or cells: wt MEFs transduced with HA-VDAC2 retrovirus; mitochondria solubilized in 1% CHAPS or 0.2% NP-40
T3 sequence (Q07813 whole entry): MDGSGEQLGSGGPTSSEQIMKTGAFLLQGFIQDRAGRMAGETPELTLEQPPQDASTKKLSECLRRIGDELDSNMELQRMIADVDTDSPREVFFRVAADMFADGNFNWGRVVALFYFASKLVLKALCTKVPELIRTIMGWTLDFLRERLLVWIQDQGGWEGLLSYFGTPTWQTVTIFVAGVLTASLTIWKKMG
Method: as §1, §2

VDAC2 = biological target: T4, VDAC2 (Mus musculus, UniProt Q60930); assay: Anti-HA immunoprecipitation of HA-tagged VDAC2 with BH3-only molecules; format: binding; conditions: mitochondria, anti-HA immunoprecipitation, 1% CHAPS (or 0.2% NP40)
T4 construct: expressed in transfected cells; host or cells: vdac1 -/-, vdac3 -/- mouse fibroblasts; wt or vdac2 -/- MEFs; Bax, Bak doubly deficient MEFs (retrovirus pMIG)
T4 sequence (Q60930 1-295): T1 sequence (looked up)
Text: Murine vdac1, vdac2, N-terminal HA-tagged vdac2, N-terminal-HA tagged Bax or Bak, as well as wild type and mutant Bak (mBH1, W122A, G123E, R124A; mBH3, L75E) were cloned into the retroviral expression vector MSCV-IRES-GFP (pMIG). PcDNA3-tBID (wt and mutants) was described previously M. C. Wei et al., Genes Dev 14, 2060-71. (2000). Generation of amphotropic retroviruses and retroviral infection were described previously E. H. Cheng et al., Mol Cell 8, 705-11. (2001). Retroviral expression of each indicated protein was confirmed by immunoblot. […]
The strength of association between BIM-EL and VDAC2 was compared to the strength of the association, if any, between BIM-EL and BAK or BAX. Mitochondria isolated from Bax, Bak doubly deficient MEFs transduced with retrovirus expressing N-terminal HA-tagged BAX, BAK, or VDAC2 were solubilized in 1% CHAPS or 0.2% NP-40 buffer, followed by anti-HA immunoprecipitation. The immunoprecipitates were analyzed by an immunoblot developed with anti-BIM. […] These findings indicate that BH3-only competition for VDAC2 frees BAK, which, in the absence of its specific inhibitor VDAC2, is prone to auto-activating homo-oligomerization. […]

[4] = biological target: T5, N-terminal HA-tagged VDAC2 (murine, UniProt Q60930 1-295); assay: anti-HA immunoprecipitation in 1% CHAPS from Bax, Bak doubly deficient MEF mitochondria before or after etoposide, anti-PUMA immunoblot (FIG. 11B)
T5 construct: also called HA-VDAC2; hemagglutinin (HA)-tagged version of VDAC2; not shown: N-terminal HA tag
T5 sequence (looked up): T1 sequence (looked up)
Method: For FIG. 11A, mitochondria isolated from vdac1 -/-, vdac3 -/- mouse fibroblasts with or without retroviral transduction of N-terminal HA-tagged VDAC2 were incubated with in vitro transcribed, translated PUMA protein at 30° C. for 30 min, followed by anti-HA immunoprecipitation in 1% CHAPS buffer. The immunoprecipitates were analyzed by an immunoblot developed with anti-PUMA. For FIG. 11B, mitochondria were isolated from Bax, Bak doubly deficient MEFs with or without retroviral transduction of N-terminal HA-tagged VDAC2 before or after etoposide treatment (10 μM) for 20 hours, followed by anti-HA immunoprecipitation in 1% CHAPS buffer. The immunoprecipitates were analyzed by an immunoblot developed with anti-PUMA (FIG. 11B, lower panel).

[5] = biological target: T5, N-terminal HA-tagged VDAC2; assay: anti-HA immunoprecipitation in 1% CHAPS or 0.2% NP40, anti-BIM immunoblot
Text: Mitochondria isolated from wild-type MEFs or vdac2 -/- mouse embryonic fibroblasts (MEFS) with retroviral transduction of N-terminal HA-tagged VDAC2 were solubilized in either 1% CHAPS or 0.2% NP40 buffer, followed by anti-HA immunoprecipitation.

[6] = biological target: BCL-XL (in Bax, Bak doubly deficient MEFs) (mouse, UniProt Q64373-1 1-233); assay: anti-HA co-immunoprecipitation in 1% CHAPS
Chain of BCL-XL (in Bax, Bak doubly deficient MEFs) (Q64373 whole entry): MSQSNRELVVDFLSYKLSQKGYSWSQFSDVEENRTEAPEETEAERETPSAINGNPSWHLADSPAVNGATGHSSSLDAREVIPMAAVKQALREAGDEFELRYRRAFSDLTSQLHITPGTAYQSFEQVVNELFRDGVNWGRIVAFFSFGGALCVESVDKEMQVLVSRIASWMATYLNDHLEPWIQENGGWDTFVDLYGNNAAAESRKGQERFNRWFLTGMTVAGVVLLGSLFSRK

Molecule: CN[C@@H]1[C@@H](O)[C@@H](O[C@@H]2[C@@H](O)[C@H](O[C@H]3O[C@H]([C@@H](C)O)[C@@H](O)[C@H](O)[C@H]3N)[C@@H](N)C[C@H]2N)OC[C@]1(C)O [G418]
- MEFs died (MEFs): 100%

B1: BAK (endogenous, or wild type Bak reconstituted by retrovirus) (other, murine, UniProt O08734 2-209, looked up)
chain: T2 sequence (O08734 2-209 limits assumed)
notes: Integral mitochondrial membrane protein, tested in mitochondria or whole cells; also called endogenous BAK; wt Bak
- binding result [1]: binds
- binding result (VDAC1 (endogenous)): no binding
- binding result [2]: binds

B2: mutant Bak mBH3 (L75E) (other, murine, UniProt O08734 2-209, looked up)
chain: T2 sequence (O08734 2-209 limits assumed) with L75E
notes: also called BAK mutated within the BH3 domain (L75E)
- binding result [3]: no binding

B3: HA-tagged VDAC2: N-terminal HA-tagged murine VDAC2, retrovirally expressed (protein)
chain: T1 sequence (looked up)
modifications: left off: small tags and cut ends
notes: N-terminal HA-tagged murine VDAC2, retrovirally expressed
- co-precipitation of endogenous BAK (BAK): efficiently co-precipitated
- co-precipitation of endogenous BAX (BAX): not

B4: PUMA (endogenous, induced by etoposide) (other, mouse, UniProt Q99ML1 1-193, looked up)
chain: MARARQEGSSPEPVEGLARDSPRPFPLGRLMPSAVSCSLCEPGLPAAPAAPALLPAAYLCAPTAPPAVTAALGGPRWPGGHRSRPRGPRPDGPQPSLSPAQQHLESPVPSAPEALAGGPTQAAPGVRVEEEEWAREIGAQLRRMADDLNAQYERRRQEEQHRHRPSPWRVMYNLFMGLLPLPRDPGAPEMEPN
notes: also called induced PUMA
- interaction with HA-tagged VDAC2 (co-immunoprecipitation) (VDAC2): stable interaction
- binding result [4]: binds

B5: BIM-EL (endogenous) (other, mouse, UniProt O54918-1 1-196, looked up)
chain: MAKQPSDVSSECDREGGQLQPAERPPQLRPGAPTSLQTEPQGNPDGEGDRCPHGSPQGPLAPPASPGPFATRSPLFIFVRRSSLLSRSSSGYFSFDTDRSPAPMSCDKSTQTPSPPCQAFNHYLSAMASIRQSQEEPEDLRPEIRIAQELRRIGDEFNETYTRRVFANDYREAEDHPQMVILQLLRFIFRLVWRRH
notes: also called BH3-only molecule BIM-EL
- binding result [5]: binds

B6: N-terminal HA-tagged BAK (other, murine, UniProt O08734 1-209, looked up)
chain: MASGQGPGPPKVGCDESPSPSEQQVAQDTEEVFRSYVFYLHQQEQETQGAAAPANPEMDNLPLEPNSILGQVGRQLALIGDDINRRYDTEFQNLLEQLQPTAGNAYELFTKIASSLFKSGISWGRVVALLGFGYRLALYVYQRGLTGFLGQVTCFLADIILHHYIARWIAQRGGWVAALNFRRDPILTVMVIFGVVLLGQFVVHRFFRS
notes: also called HA-BAK; not shown: N-terminal HA tag
- binding result [6]: no binding
